The supplement of paper PMC12338614
± gives the uncertainty stated by the source.

B1: library; numbered along this chain (parent)
chain: MEVVDPQQLGMFTEGELMSVGMDTFIHRIDSTEVIYQPRRKRAKLIGKYLMGDLLGEGSYGKVKEVLDSETLCRRAVKILKKKKLRRIPNGEANVKKEIQLLRRLRHKNVIQLVDVLYNEEKQKMYMVMEYCVCGMQEMLDSVPEKRFPVCQAHGYFCQLIDGLEYLHSQGIVHKDIKPGNLLLTTGGTLKISDLGVAEALHPFAADDTCRTSQGSPAFQPPEIANGLDTFSGFKVDIWSAGVTLYNITTGLYPFEGDNIYKLFENIGKGSYAIPGDCGPPLSDLLKGMLEYEPAKRFSIRQIRQHSWFRKKHPPAEAPVPIPPSPDTKDRWRSMTVVPYLEDLHGADEDEDLFDIEDDIIYTQDFTVPGQVPEEEASHNGQRRGLPKAVCMNGTEAAQLSTKSRAEGRAPNPARKACSASSKIRRLSACKQQ

Variants of: B1
Assay: STK11 functional score (HeLa growth suppression), rescaled enrichment; synonymous median = 1, nonsense median = 0 (normalised score)
Conditions: with HeLa; variant type: missense
Experimental: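 Deep mutational scan (TileSeq/POPCode codon randomisation) of full-length codon-optimised STK11 cDNA integrated at a Bxb1 landing pad (AAVS1) in HeLa cells. Restoring functional STK11 suppresses HeLa proliferation. Variant frequencies were measured by NGS before and after about two weeks of growth. The error-corrected enrichment log-ratio was rescaled so that synonymous median = 1 and nonsense median = 0, scores above 1 were compressed, and codon-level and three biological replicate scores were combined; error is the bootstrapped standard error. Scale: synonymous median = 1, nonsense median = 0; below 0.5 = damaging.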

Variant	STK11 functional score
K124D	0.919 ± 0.5
A389G	1.46 ± 0.35
T185L	1.08 ± 0.32
K124Q	1.61 ± 0.18
L263C	1.11 ± 0.25
V390P	1.52 ± 0.27
T189C	1.15 ± 0.55
I111F	0.365 ± 0.45
S213G	1.37 ± 0.14
H379V	1.46 ± 0.26
I248T	1.15 ± 0.2
E351S	1.4 ± 0.14
V3P	1.69 ± 0.37
L201T	1.2 ± 0.26
G91Q	1.1 ± 0.13
G135H	1.63 ± 0.21
L105R	0.653 ± 0.31
E376F	1.35 ± 0.37
P280F	1 ± 0.18
R103T	1.32 ± 0.27
D359L	1.53 ± 0.17
G61E	0.195 ± 0.23
P254T	0.929 ± 0.1
P314N	1.53 ± 0.13

Variant	STK11 functional score
D53Y	1.38 ± 0.1
S142A	1.63 ± 0.14
E120A	0.817 ± 0.13
G187L	1.27 ± 0.2
I238S	0.58 ± 0.16
V110A	0.184 ± 0.078
Q305W	0.981 ± 0.4
Y292V	0.931 ± 0.12
G385W	1.28 ± 0.14
V34A	1.03 ± 0.57
Y340V	1.6 ± 0.27
A218C	0.947 ± 0.27
I46P	0.555 ± 0.13
D358R	1.34 ± 0.27
V173H	0.45 ± 0.086
K191G	0.729 ± 0.12
D207E	1.48 ± 0.51
E374T	1.52 ± 0.31
I177L	0.956 ± 0.15
E145Q	1.29 ± 0.22
P411L	1.16 ± 0.27
L201H	1.16 ± 0.3
S334N	1.58 ± 0.47
E57Q	1.06 ± 0.23

Variant	STK11 functional score
P294I	0.351 ± 0.081
D53R	1.58 ± 0.26
C391T	0.912 ± 0.71
T250K	0.0557 ± 0.22
Q123A	1.11 ± 0.28
D327Y	1.36 ± 0.08
G257Y	1.57 ± 0.13
Y340F	1.04 ± 0.49
R86E	1.6 ± 0.14
L17I	0.851 ± 0.16
I360W	0.807 ± 0.13
L167E	-0.113 ± 0.12
Q214L	1.05 ± 0.15
T186A	1.16 ± 0.25
V197C	1.55 ± 0.22
L201E	0.334 ± 0.27
L201R	0.929 ± 0.2
A205D	1.33 ± 0.46
K235S	1.67 ± 0.14
V95S	1.4 ± 0.18
S378R	1.16 ± 0.39
S216F	-0.0894 ± 0.09
I88Y	1.67 ± 0.21
Y246H	-0.136 ± 0.1

Variant	STK11 functional score
Q214Y	1.19 ± 0.31
R333L	1.32 ± 0.35
H379W	0.788 ± 0.29
Q170E	0.234 ± 0.13
P411A	1.04 ± 0.31
F204W	1.3 ± 0.13
D359Y	1.13 ± 0.21
L85C	1.1 ± 0.34
Y49I	1.24 ± 0.13
L290R	-0.22 ± 0.065
L184N	0.425 ± 0.35
G227L	0.694 ± 0.15
D352V	1.12 ± 0.24
D229M	1.28 ± 0.35
A241T	-0.298 ± 0.45
G257V	1.23 ± 0.17
K48I	1.34 ± 0.13
Q364L	1.33 ± 0.24
Q123W	0.588 ± 0.23
E57S	1.17 ± 0.35
N181Q	0.708 ± 0.31
K122D	1.52 ± 0.36
K82H	1.08 ± 0.22
S213P	1.32 ± 0.26

Variant	STK11 functional score
I322W	1.18 ± 0.088
D330T	1.59 ± 0.27
L285I	0.951 ± 0.32
G56A	0.838 ± 0.097
R310G	0.764 ± 0.2
Q37C	0.0953 ± 0.088
S378L	0.82 ± 0.19
R405P	1.27 ± 0.49
K82A	1.43 ± 0.15
G394S	1.46 ± 0.33
G394Q	1.35 ± 0.35
Y272W	1.01 ± 0.2
A406D	1.4 ± 0.36
K48S	1.37 ± 0.19
A429K	1.49 ± 0.27
K423H	0.899 ± 0.69
K83L	0.484 ± 0.22
Q399L	1.31 ± 0.25
V3G	1.47 ± 0.26
E293H	1 ± 0.28
S334P	1.43 ± 0.18
P89S	0.816 ± 0.17
D348S	1.59 ± 0.16
I111Y	0.97 ± 0.1

Variant	STK11 functional score
Q159C	0.889 ± 0.35
N380W	1.04 ± 0.73
I322T	0.984 ± 0.58
L184Q	0.906 ± 0.2
E349W	1.14 ± 0.5
L72N	0.264 ± 0.095
T209R	1.27 ± 0.2
K416M	1.67 ± 0.35
L182D	0.257 ± 0.33
V368F	0.859 ± 0.25
R409N	1.55 ± 0.12
S421K	1.45 ± 0.21
D327P	1.59 ± 0.27
R304L	1.06 ± 0.17
K329P	1.47 ± 0.2
L341F	0.562 ± 0.13
F366G	1.55 ± 0.13
Q364V	1.11 ± 0.14
C430S	1.56 ± 0.34
N181E	-0.231 ± 0.13
D359M	1.6 ± 0.14
D350A	0.867 ± 0.29
P144N	1.53 ± 0.23
K416D	1.61 ± 0.12

Variant	STK11 functional score
T336N	0.774 ± 0.2
L55G	1.53 ± 0.23
L80W	1.47 ± 0.25
E92A	1.31 ± 0.35
N393L	1.16 ± 0.46
K175Y	0.592 ± 0.48
L55S	0.693 ± 0.14
L344E	1.28 ± 0.53
Q382K	1.11 ± 0.44
M127G	0.516 ± 0.14
S271P	0.317 ± 0.1
Y246A	1.06 ± 0.1
L341S	0.93 ± 0.16
H202E	1.47 ± 0.23
Q100V	1.39 ± 0.2
N259G	0.492 ± 0.49
K64G	0.436 ± 0.29
D68Q	0.949 ± 0.48
N259H	1.66 ± 0.14
G56E	1.13 ± 0.098
V128Q	1.22 ± 0.12
E349A	1.5 ± 0.13
K84S	1.71 ± 0.19
